# Experimental data from publication PMC12038395, “Mechanistic insights into the activity of SARS-CoV-2 RNA polymerase inhibitors using single-molecule FRET”.
# B1: Extension Template P1 / Extension Primer P12 short (overhang RNA) (structured_RNA)
# RNA 1: AAAAAAAAUUUUUUUUUUUUUUUAAUUCUUAAUCUCACAUAGC
# RNA 2: GCUAUGUGAGAUUAAGAAUU
# Target: SARS-CoV-2 nsp12 (RdRp), wild type;SARS-CoV-2 nsp7;SARS-CoV-2 nsp8 (SARS-CoV-2;SARS-CoV-2;SARS-CoV-2, UniProt P0DTD1;P0DTD1;P0DTD1 4393-5324;3860-3942;3943-4140, ||)
# Test: EMSA (native gel); no NTP
# Conditions: protein: recombinant;recombinant;recombinant; tags: C-terminal His10 (TEV-cleaved protein A);GST-3C construct (E. coli); 9.4 kDa on gel;GST-3C construct (E. coli); 22 kDa on gel; copies: 1;1;2; label: Cy3 at template 5' end; Cy5 internal at primer position 12
binder,measurement,value
B1,binding result,binds
